Data as given in patent US20230382966A1, “NOVEL KLOTHO INTERACTION SITE IN THE C-TERMINUS OF FGF23” (INDIANA UNIVERSITY RESEARCH AND TECHNOLOGY CORPORATION, priority 2020, published 2023).
Where a chain is given by its changes, count along the chain named.

B1: FGF23 A^188: FGF23^25-240, A^188 (protein)
chain: YPNASPLLGSSWGGLIHLYTATARNSYHLQIHKNGHVDGAPHQTIYSALMIRSEDAGFVVITGVMSRRYLCMDFRGNIFGSHYFDPENCRFQHQTLENGYDVYHSPQYHFLVSLGRAKRAFLPGMNPPPYSQFLSRRNEIPLIHFNTPIPRRHTRSAEDDSERAPLNVLKPRARMTPAPASCSQELPSAEDNSPMASDPLGVVRGGRVNTHAGGTG
B2: FGF23 A^188,222: FGF23^25-240, A^188,222 (protein)
chain: B1 chain with D198A
B3: FGF23: FGF23^25-240, native protein (protein)
chain: B1 chain with A164D

Key:
[1] = test system: FGF21-signaling in 293/KLB cells; assay: Block of FGF21-signaling in 293/KLB cells; assay type: cell-based; conditions: Table 1, FGF21 associated antagonist
From the text: The sequence homology in these endocrine FGF peptides (FGF23^180-205, FGF23^212-239, FGF19^191-216 and FGF21^185-209) is provided in FIG. 2.

FGFR/KL complex = assay: FGF23-signaling activity (stimulation of Erk-phosphorylation) in 293/KL cells; assay type: cell-based, human; conditions: for EC50: Table 3, p-Erk
Sequence of FGFR/KL complex (Q9UEF7 34-1012, one chain of several): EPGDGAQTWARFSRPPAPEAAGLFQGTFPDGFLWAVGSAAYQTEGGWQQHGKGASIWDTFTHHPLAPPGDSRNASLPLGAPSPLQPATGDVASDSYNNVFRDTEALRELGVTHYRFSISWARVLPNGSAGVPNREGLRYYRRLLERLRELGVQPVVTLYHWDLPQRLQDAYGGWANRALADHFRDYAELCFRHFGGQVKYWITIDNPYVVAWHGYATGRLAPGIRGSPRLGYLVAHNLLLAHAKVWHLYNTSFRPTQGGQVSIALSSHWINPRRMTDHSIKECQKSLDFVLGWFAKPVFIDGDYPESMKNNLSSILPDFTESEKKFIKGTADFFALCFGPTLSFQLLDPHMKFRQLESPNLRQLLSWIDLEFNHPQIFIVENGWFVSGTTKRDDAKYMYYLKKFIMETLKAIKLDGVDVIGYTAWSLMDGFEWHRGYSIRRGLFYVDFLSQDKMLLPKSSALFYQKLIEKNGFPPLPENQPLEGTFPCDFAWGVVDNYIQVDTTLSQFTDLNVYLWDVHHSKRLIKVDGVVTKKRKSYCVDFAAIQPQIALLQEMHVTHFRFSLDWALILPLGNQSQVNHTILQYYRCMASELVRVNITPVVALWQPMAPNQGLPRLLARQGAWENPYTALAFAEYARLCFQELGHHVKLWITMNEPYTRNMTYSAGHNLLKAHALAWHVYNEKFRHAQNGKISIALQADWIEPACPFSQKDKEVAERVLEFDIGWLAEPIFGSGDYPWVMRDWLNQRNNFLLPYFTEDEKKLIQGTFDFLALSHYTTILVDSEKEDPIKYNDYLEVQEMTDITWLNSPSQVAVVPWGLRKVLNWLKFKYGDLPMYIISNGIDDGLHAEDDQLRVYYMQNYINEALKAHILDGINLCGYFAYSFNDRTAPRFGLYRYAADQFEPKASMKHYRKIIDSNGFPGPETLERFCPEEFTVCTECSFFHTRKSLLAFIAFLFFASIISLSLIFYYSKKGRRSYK
Description: (§1) FIGS. 5A-5D provide data relating to the activities of FGF23-analogs containing one or two active KL-interaction sites by in vitro and in vivo methods. […] FIGS. 5B-5D are scatter plots presenting an in vivo assessment of FGF23-activity in mice. WT mice were treated with 0.5 mg/kg body weight with either FGF23, FGF23 A^188, FGF23 A^222, FGF23 A^188,222, or vehicle, n=5 or 10/group, and post 3-hours the gene expression changes were studied by quantitative real time PCR for target genes, FIG. 5B represents measurement of Cyp24a1, FIG. 5C represents measurement of Cyp27b1, and FIG. 5D represents measurement of Egr1. The data is presented as a scatter plot where each dot represents one animal, mean ±SEM. One-way ANOVA with Tukey's comparison was employed for statistical analyses where***P<0.001 vs. vehicle; #P<0.05, ##P<0.01, ###P<0.001 vs FGF23; and $$$P<0.001 vs FGF23 A^188,222 was calculated.
Whether FGF23-based agonism can employ each of the two KL-interaction sites as witnessed in the C72 peptide antagonist was studied. To do so, a selective mutation at position Asp188 or Asp222 was made in the native FGF23. […] This is consistent with prior reports where C-terminal sequence deletion after residue 205 position had no apparent effect on cellular signaling (FIG. 5A, Table 3). […] Asp188 residue is purported to be singularly essential for KL-binding and FGF23 activity, and its importance was substantiated by the lack of antagonism when the C26 peptide was similarly mutated from Asp to Ala (FIG. 4A). […] To confirm that these observations were not resulting from unexpected changes in higher order structure that was not apparent in biosynthesis, purification, or formulation of the mutant proteins their biophysical integrity were directly assessed by thermal denaturation.
The N-terminal domain of the endocrine FGFs primarily determines the FGFR-activation while the C-terminal sequence guides the co-receptor specificity with a Klotho co-receptor, KL or KLB. The receptor complex specificity among the endocrine FGF-proteins can be modulated by altering their C-terminal domains. Consequently, two FGF21-23 chimeric protein analogs were prepared containing the FGF21 N-terminal core with its C-terminal KLB-binding peptide replaced with an FGF23 C-terminal peptide sequence constituted by C72 (FGF21-23 C72) or C26 (FGF21-23 C26) (Table 3).

[2] = test system: FGFR/KL-downstream targets Cyp24a1, Cyp27b1 and Egr1; assay: Mouse kidney gene expression after FGF23 protein analogs (quantitative real time PCR); assay type: in vivo; conditions: WT mice, 0.5 mg/kg, 3 hours
Description: as §1
To test whether C28 as the second KL-interaction site can promote FGF23 in vivo activity, the single site FGF23-analogs were assessed for their ability to alter kidney gene expression in normal mice. Four proteins (FGF23, FGF23 A188, FGF23 A222 or FGF23 A188, 222 analogs) were each dosed to mice 0.5 mg/kg and 3 hours later quantitative real time PCR was employed to assess kidney mRNA expression of the FGFR/KL-downstream targets Cyp24a1, Cyp27b1 and early growth response protein 1 (Egr1). […] This is not surprising since the optimal treatment time for Egrl modulation is as early as 1 hour for FGF-signaling measurements. The magnitude in upregulation of gene expression for Cyp24a1 was the highest, with twenty-fold induction by native FGF23 treatment (FIG. 5B). […] Similarly, the Egrl induction is reduced for FGF23 A188 and FGF23 A222 analogs as compared to native FGF23 (P<0.05, FIG. 5D), but no difference is observed among the analogs and FGF23 for Cyp27b1 (FIG. 5C).

Molecule | IC50 [1] [nM] | FGF23-type agonism / FGFR/KL activation (in words) (FGFR/KL complex) | EC50 (FGFR/KL complex) [nM] | kidney Cyp24a1 mRNA expression vs vehicle [2] | kidney Cyp27b1 mRNA expression vs vehicle [2] | Egr1 induction as compared to native FGF23 ([2]; kidney) | magnitude of Cyp24a1 effect as compared to native FGF23 ([2]; kidney) | magnitude of upregulation of Cyp24a1 gene expression (induction) ([2]; kidney)
21C25: FGF21 associated antagonist (FGF21^185-209, C25) (PPDVGSSDPLSMVGPSQGRSPSYAS) | 75.2 ± 19 |  |  |  |  |  |  | 
B1 |  | retained full potency | 0.28 ± 0.08 | significant elevation | coordinate suppression | reduced | fractionally reduced | 
B2 |  | bioactivity was abrogated |  | inactive | inactive | statistically different |  | 
B3 |  |  | 0.16 ± 0.05 | significant elevation | coordinate suppression |  |  | twenty-fold
